Assay results: the supplement of paper PMC6755084

B1: F1*; the commonest letter at each place (parent)
chain: GAGACCGCAACTGAAAAGTTGTTATCACTTGTCGTAAGACACTTTGGATGGGTTGAAGTTCTGCACGTAGAAGCAAAAGGC

Variants of: B1
Test: fraction ligated after 30 min (ligated reads / total reads); higher = more ligase activity
Settings: with F1*sub RNA substrate (template-directed ligation), 42 °C
Summary of the method: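 Oligo-pool templates of ligase ribozyme variants were PCR-amplified, T7-transcribed and gel-purified. Ligated and unligated bands were gel-separated, reverse transcribed with barcoded primers, and MiSeq-sequenced; core bases were filtered at quality ≥20. Fraction ligated per variant was ligated reads over total reads.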
With GAGACCGCAACTGAAAAGTTGTTATCACTTGTACTAAGACACTTTGGATGGGTTGAAGTTCTGCACGTAGAAGCAAAAGGC the fraction ligated was 0.805.
With GAGACCGCAACTGAAAAGTTGTTATCACTTGTAATAAGACACTTTGGATGGGTTGAAGTTCTGCACGTAGAAGCAAAAGGC the fraction ligated was 0.834.
Work on GAGACCGCAACTGAAAAGTTGTTATCACTTGTATTAAGACACTTTGGATGGGTTGAAGTTCTGCACGTAGAAGCAAAAGGC yielded a fraction ligated of 0.843.
For GAGACCGCAACTGAAAAGTTGTTATCACTTGTAGTAAGACACTTTGGATGGGTTGCAGTTCTGCACGTAGAAGCAAAAGGC, the fraction ligated was 0.742.
GAGACCGCAACTGAAAAGTTGTTATCACTTGTAGTAAGACACTTTGGATGGGTTGTAGTTCTGCACGTAGAAGCAAAAGGC was tested, and the fraction ligated was 0.837.
GAGACCGCAACTGAAAAGTTGTTATCACTTGTAGTAAGACACTTTGGATGGGTTGGAGTTCTGCACGTAGAAGCAAAAGGC was tested, and the fraction ligated was 0.812.
In the case of GAGACCGCAACTGAAAAGTTGTTATCACTTGTAGTAAGAAACTTTGGATGGGTTGAAGTTCTGCACGTAGAAGCAAAAGGC, the fraction ligated is reported as 0.853.
For GAGACCGCAACTGAAAAGTTGTTATCACTTGTAGTAAGATACTTTGGATGGGTTGAAGTTCTGCACGTAGAAGCAAAAGGC, the fraction ligated was 0.849.
Work on GAGACCGCAACTGAAAAGTTGTTATCACTTGTAGTAAGAGACTTTGGATGGGTTGAAGTTCTGCACGTAGAAGCAAAAGGC yielded a fraction ligated of 0.849.
In the case of GAGACCGCAACTGAAAAGTTGTTATCACTTGTAGTAAGACAGTTTGGATGGGTTGAAGTTCTGCACGTAGAAGCAAAAGGC, the fraction ligated is reported as 0.84.
For GAGACCGCAACTGAAAAGTTGTTATCACTTGTAGTAAGACATTTTGGATGGGTTGAAGTTCTGCACGTAGAAGCAAAAGGC, the fraction ligated was 0.872.
GAGACCGCAACTGAAAAGTTGTTATCACTTGTAGTAAGACAATTTGGATGGGTTGAAGTTCTGCACGTAGAAGCAAAAGGC showed a fraction ligated of 0.879.
GAGACCGCAACTGAAAAGTTGTTATCACTTGTAGTAAGGCACTTTGGATGGGTTGAAGTTCTGCACGTAGAAGCAAAAGGC gave a fraction ligated of 0.84.
For GAGACCGCAACTGAAAAGTTGTTATCACTTGTAGTAAGTCACTTTGGATGGGTTGAAGTTCTGCACGTAGAAGCAAAAGGC, the fraction ligated was 0.852.
GAGACCGCAACTGAAAAGTTGTTATCACTTGTAGTAAGCCACTTTGGATGGGTTGAAGTTCTGCACGTAGAAGCAAAAGGC gave a fraction ligated of 0.792.
GAGACCGCAACTGAAAAGTTGTTATCACTTGTAGTAAGACACTTTGGTTGGGTTGAAGTTCTGCACGTAGAAGCAAAAGGC was tested, and the fraction ligated was 0.0887.
Work on GAGACCGCAACTGAAAAGTTGTTATCACTTGTAGTAAGACACTTTGGGTGGGTTGAAGTTCTGCACGTAGAAGCAAAAGGC yielded a fraction ligated of 0.79.
GAGACCGCAACTGAAAAGTTGTTATCACTTGTAGTAAGACACTTTGGCTGGGTTGAAGTTCTGCACGTAGAAGCAAAAGGC showed a fraction ligated of 0.784.
In the case of GAGACCGCAACTGAAAAGTTGTTATCACTTGTAGTAAGACACTTTGGATGGGTTGATGTTCTGCACGTAGAAGCAAAAGGC, the fraction ligated is reported as 0.849.
Work on GAGACCGCAACTGAAAAGTTGTTATCACTTGTAGTAAGACACTTTGGATGGGTTGACGTTCTGCACGTAGAAGCAAAAGGC yielded a fraction ligated of 0.834.
GAGACCGCAACTGAAAAGTTGTTATCACTTGTAGTAAGACACTTTGGATGGGTTGAGGTTCTGCACGTAGAAGCAAAAGGC gave a fraction ligated of 0.868.
Work on GAGACCGCAACTGAAAAGTTGTTATCACTTGTAGTAAAACACTTTGGATGGGTTGAAGTTCTGCACGTAGAAGCAAAAGGC yielded a fraction ligated of 0.857.
GAGACCGCAACTGAAAAGTTGTTATCACTTGTAGTAACACACTTTGGATGGGTTGAAGTTCTGCACGTAGAAGCAAAAGGC gave a fraction ligated of 0.832.
GAGACCGCAACTGAAAAGTTGTTATCACTTGTAGTAATACACTTTGGATGGGTTGAAGTTCTGCACGTAGAAGCAAAAGGC showed a fraction ligated of 0.86.
Work on GAGACCGCAACTGAAAAGTTGTTATCACTTGTAGTATGACACTTTGGATGGGTTGAAGTTCTGCACGTAGAAGCAAAAGGC yielded a fraction ligated of 0.849.
In the case of GAGACCGCAACTGAAAAGTTGTTATCACTTGTAGTACGACACTTTGGATGGGTTGAAGTTCTGCACGTAGAAGCAAAAGGC, the fraction ligated is reported as 0.859.
For GAGACCGCAACTGAAAAGTTGTTATCACTTGTAGTAGGACACTTTGGATGGGTTGAAGTTCTGCACGTAGAAGCAAAAGGC, the fraction ligated was 0.872.
GAGACCGCAACTGAAAAGTTGTTATCACTTGTAGTAAGACACTTTGGATGGGTTGAAGTTCTGCACGTAGAAGCAAAAGGC gave a fraction ligated of 0.869.
GAGACCGCAACTGAAAAGTTGTTATCACTTGTAGTAAGACGCTTTGGATGGGTTGAAGTTCTGCACGTAGAAGCAAAAGGC gave a fraction ligated of 0.823.
Variant GAGACCGCAACTGAAAAGTTGTTATCACTTGTAGTAAGACTCTTTGGATGGGTTGAAGTTCTGCACGTAGAAGCAAAAGGC has a fraction ligated of 0.839.
For GAGACCGCAACTGAAAAGTTGTTATCACTTGTAGTAAGACCCTTTGGATGGGTTGAAGTTCTGCACGTAGAAGCAAAAGGC, the fraction ligated was 0.818.
GAGACCGCAACTGAAAAGTTGTTATCACTTGTAGTCAGACACTTTGGATGGGTTGAAGTTCTGCACGTAGAAGCAAAAGGC showed a fraction ligated of 0.844.
In the case of GAGACCGCAACTGAAAAGTTGTTATCACTTGTAGTTAGACACTTTGGATGGGTTGAAGTTCTGCACGTAGAAGCAAAAGGC, the fraction ligated is reported as 0.868.
GAGACCGCAACTGAAAAGTTGTTATCACTTGTAGTGAGACACTTTGGATGGGTTGAAGTTCTGCACGTAGAAGCAAAAGGC gave a fraction ligated of 0.824.
